Target: T1, His-tagged Arabidopsis thaliana full-length UVR8 (UV … LOCUS 8) (Arabidopsis thaliana), Q9FN03
T1 chain: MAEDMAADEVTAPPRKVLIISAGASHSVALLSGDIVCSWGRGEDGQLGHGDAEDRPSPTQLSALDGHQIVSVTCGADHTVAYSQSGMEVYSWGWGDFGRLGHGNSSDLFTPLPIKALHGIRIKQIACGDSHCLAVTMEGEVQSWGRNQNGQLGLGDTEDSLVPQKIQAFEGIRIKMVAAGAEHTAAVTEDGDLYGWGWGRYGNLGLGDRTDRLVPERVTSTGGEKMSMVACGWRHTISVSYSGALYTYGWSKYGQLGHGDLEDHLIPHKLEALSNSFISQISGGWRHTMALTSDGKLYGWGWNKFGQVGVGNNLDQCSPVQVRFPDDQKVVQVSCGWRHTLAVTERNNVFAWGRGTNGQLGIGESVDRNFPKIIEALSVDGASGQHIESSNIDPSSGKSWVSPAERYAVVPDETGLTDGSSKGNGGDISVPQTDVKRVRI
Assay: SDS-PAGE without boiling
Conditions: remark: other sources report otherwise

stoichiometry N: 2
B1: His-tagged Arabidopsis thaliana full-length UVR8 (UV … LOCUS 8), Q9FN03 1-440 (natural protein)
chain: T1 chain
